Data taken from patent EP4674954A1.

How the values were obtained:
[1] = target: mbIL-7-1 (CD52 signal peptide-IL-7-linker 1-BCMA extracellular domain-CD52); assay: flow cytometry, share of stained cells; TIL sample T001-1 electroporated with mbIL-7-1
[2] = target: mbIL-7-2 (CD52 signal peptide-IL-7-linker 2-BCMA extracellular domain-CD52); assay: flow cytometry, share of stained cells; TIL sample T002-2 electroporated with mbIL-7-2
[3] = target: mbIL-7-2 (CD52 signal peptide-IL-7-linker 2-BCMA extracellular domain-CD52); assay: flow cytometry, share of stained cells; TIL sample T003-2 electroporated with mbIL-7-2
[4] = target: mbIL-7-7 (CD52 signal peptide-IL-7-linker 2-BCMA extracellular domain-CD8 transmembrane domain); assay: flow cytometry, share of stained cells; TIL sample T003-7 electroporated with mbIL-7-7
[5] = target: mbIL-7-1 (CD52 signal peptide-IL-7-linker 1-BCMA extracellular domain-CD52); assay: flow cytometry, share of stained cells; TIL sample T004-1 electroporated with mbIL-7-1
[6] = target: mbIL-7-3 (CD52 signal peptide-IL-7-linker 4-point-mutated BCMA extracellular domain-CD52); assay: flow cytometry, share of stained cells; TIL sample T005-3 electroporated with mbIL-7-3
[7] = target: mbIL-7-5 (CD52 signal peptide-IL-7-point mutation BCMA extracellular domain-linker 4-CD52); assay: flow cytometry, share of stained cells; TIL sample T006-5 electroporated with mbIL-7-5
[8] = target: mbIL-7-6 (CD52 signal peptide-IL-7-linker 3-BCMA extracellular domain-CD52); assay: flow cytometry, share of stained cells; TIL sample T007-6 electroporated with mbIL-7-6
[9] = target: mbIL-7-8 (IL-7 signal peptide-IL-7-linker 2-truncated BCMA extracellular domain-CD52); assay: flow cytometry, share of stained cells; TIL sample T008-8 electroporated with mbIL-7-8
[10] = target: mbIL-7-3 (CD52 signal peptide-IL-7-linker 4-point-mutated BCMA extracellular domain-CD52); assay: flow cytometry, share of stained cells; TIL sample T009-3 electroporated with mbIL-7-3
[11] = target: mbIL-7-4 (CD52 signal peptide-IL-7-linker 5-truncated point-mutated BCMA extracellular domain-CD8 extracellular hinge region-CD52); assay: flow cytometry, share of stained cells; TIL sample T010-4 electroporated with mbIL-7-4
[12] = target: mbIL-7-9 (CD52 signal peptide-IL-7-linker 5-truncated point-mutated BCMA extracellular domain-CD52); assay: flow cytometry, share of stained cells; TIL sample T011-9 electroporated with mbIL-7-9
[13] = target: mbIL-7-9 (CD52 signal peptide-IL-7-linker 5-truncated point-mutated BCMA extracellular domain-CD52); assay: flow cytometry, share of stained cells; TIL sample T012-9 electroporated with mbIL-7-9
[14] = target: mbIL-7-9 (CD52 signal peptide-IL-7-linker 5-truncated point-mutated BCMA extracellular domain-CD52); assay: flow cytometry, share of stained cells; TIL sample T013-9 electroporated with mbIL-7-9
[15] = target: mbIL-7-9 (CD52 signal peptide-IL-7-linker 5-truncated point-mutated BCMA extracellular domain-CD52); assay: flow cytometry, share of stained cells; TIL sample T014-9 electroporated with mbIL-7-9

Chain of mbIL-7-9 (CD52 signal peptide-IL-7-linker 5-truncated point-mutated BCMA extracellular domain-CD52) (chain, as listed by the source limits assumed, change not shown): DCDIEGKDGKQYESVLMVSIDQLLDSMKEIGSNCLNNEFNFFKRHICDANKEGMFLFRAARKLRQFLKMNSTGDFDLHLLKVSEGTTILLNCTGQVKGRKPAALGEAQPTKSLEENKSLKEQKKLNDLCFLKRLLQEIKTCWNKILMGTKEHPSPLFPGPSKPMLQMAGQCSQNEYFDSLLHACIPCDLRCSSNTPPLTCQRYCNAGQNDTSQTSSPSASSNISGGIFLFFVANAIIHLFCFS
Chain of mbIL-7-3 (CD52 signal peptide-IL-7-linker 4-point-mutated BCMA extracellular domain-CD52) (chain, as listed by the source limits assumed, change not shown): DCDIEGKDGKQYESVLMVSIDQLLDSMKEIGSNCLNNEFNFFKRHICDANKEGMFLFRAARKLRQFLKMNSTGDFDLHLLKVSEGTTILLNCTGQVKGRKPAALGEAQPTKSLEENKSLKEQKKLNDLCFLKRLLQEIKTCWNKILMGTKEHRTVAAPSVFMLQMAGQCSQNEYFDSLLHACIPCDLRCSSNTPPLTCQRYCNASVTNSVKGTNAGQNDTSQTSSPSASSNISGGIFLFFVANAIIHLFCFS
Chain of mbIL-7-1 (CD52 signal peptide-IL-7-linker 1-BCMA extracellular domain-CD52) (chain, as listed by the source limits assumed): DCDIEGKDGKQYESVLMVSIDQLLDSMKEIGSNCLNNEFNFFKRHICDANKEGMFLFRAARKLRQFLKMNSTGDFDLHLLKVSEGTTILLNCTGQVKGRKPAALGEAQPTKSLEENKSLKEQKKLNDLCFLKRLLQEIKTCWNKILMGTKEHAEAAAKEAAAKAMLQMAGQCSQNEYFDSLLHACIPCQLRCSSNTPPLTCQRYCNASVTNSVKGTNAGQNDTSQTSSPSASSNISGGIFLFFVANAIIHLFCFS
Chain of mbIL-7-2 (CD52 signal peptide-IL-7-linker 2-BCMA extracellular domain-CD52) (chain, as listed by the source limits assumed): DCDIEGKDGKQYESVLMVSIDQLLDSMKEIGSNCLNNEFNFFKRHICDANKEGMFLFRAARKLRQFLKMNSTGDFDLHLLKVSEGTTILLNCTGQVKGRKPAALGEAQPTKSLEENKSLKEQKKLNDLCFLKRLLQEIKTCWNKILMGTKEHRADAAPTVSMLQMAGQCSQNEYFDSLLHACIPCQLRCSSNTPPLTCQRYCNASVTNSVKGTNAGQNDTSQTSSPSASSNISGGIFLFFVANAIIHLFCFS
Chain of mbIL-7-7 (CD52 signal peptide-IL-7-linker 2-BCMA extracellular domain-CD8 transmembrane domain) (chain, as listed by the source limits assumed): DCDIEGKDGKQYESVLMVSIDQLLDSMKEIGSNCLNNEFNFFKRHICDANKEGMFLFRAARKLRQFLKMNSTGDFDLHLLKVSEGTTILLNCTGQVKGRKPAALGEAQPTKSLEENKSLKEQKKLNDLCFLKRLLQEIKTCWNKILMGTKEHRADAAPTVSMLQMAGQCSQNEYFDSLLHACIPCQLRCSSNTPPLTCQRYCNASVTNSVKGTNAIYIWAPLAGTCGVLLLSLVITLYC
Chain of mbIL-7-6 (CD52 signal peptide-IL-7-linker 3-BCMA extracellular domain-CD52) (chain, as listed by the source limits assumed): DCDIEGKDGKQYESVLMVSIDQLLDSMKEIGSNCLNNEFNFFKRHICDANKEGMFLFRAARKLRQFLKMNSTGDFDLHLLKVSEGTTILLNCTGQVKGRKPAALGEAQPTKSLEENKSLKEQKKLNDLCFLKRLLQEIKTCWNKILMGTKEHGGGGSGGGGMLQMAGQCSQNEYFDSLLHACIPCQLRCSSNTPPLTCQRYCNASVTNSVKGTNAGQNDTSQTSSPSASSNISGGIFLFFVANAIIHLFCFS
Chain of mbIL-7-5 (CD52 signal peptide-IL-7-point mutation BCMA extracellular domain-linker 4-CD52) (chain, as listed by the source limits assumed, change not shown): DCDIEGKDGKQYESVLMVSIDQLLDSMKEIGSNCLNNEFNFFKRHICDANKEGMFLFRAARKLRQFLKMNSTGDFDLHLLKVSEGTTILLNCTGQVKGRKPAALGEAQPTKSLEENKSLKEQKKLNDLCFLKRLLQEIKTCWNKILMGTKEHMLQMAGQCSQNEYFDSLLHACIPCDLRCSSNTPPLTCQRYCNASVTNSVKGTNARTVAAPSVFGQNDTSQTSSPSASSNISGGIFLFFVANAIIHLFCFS
Chain of mbIL-7-8 (IL-7 signal peptide-IL-7-linker 2-truncated BCMA extracellular domain-CD52) (chain, as listed by the source limits assumed): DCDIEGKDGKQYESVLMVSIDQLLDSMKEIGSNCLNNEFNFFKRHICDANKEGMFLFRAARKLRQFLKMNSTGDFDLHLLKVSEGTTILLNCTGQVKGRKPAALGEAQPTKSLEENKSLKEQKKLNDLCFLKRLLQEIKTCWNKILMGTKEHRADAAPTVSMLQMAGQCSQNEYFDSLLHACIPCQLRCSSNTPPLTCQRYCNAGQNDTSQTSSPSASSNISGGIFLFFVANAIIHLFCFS
Chain of mbIL-7-4 (CD52 signal peptide-IL-7-linker 5-truncated point-mutated BCMA extracellular domain-CD8 extracellular hinge region-CD52) (chain, as listed by the source limits assumed, change not shown): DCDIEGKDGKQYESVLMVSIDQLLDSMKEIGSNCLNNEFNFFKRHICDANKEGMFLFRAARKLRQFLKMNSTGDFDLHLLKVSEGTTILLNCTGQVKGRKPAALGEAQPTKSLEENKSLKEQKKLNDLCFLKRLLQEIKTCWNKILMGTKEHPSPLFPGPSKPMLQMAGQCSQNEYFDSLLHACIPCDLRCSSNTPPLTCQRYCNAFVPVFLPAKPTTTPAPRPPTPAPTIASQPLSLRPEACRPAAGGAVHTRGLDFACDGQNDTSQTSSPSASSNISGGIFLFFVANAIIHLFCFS

Positive rate (%) [1]: 49.3% | Positive rate (%) [2]: 45.4% | Positive rate (%) [3]: 51.2% | Positive rate (%) [4]: 15.1% | Positive rate (%) [5]: 40.2% | Positive rate (%) [6]: 54.1% | Positive rate (%) [7]: 44.7% | Positive rate (%) [8]: 12.3% | Positive rate (%) [9]: 42.5% | Positive rate (%) [10]: 52% | Positive rate (%) [11]: 43.8% | Positive rate (%) [12]: 47.6% | Positive rate (%) [13]: 50.1% | Positive rate (%) [14]: 45.9% | Positive rate (%) [15]: 41.1%
Substance: BCMA flow antibody (purchased from Biolegend, catalog number 357504)
